Experimental data as given in patent publication US12097241B2, “Methods of treating kidney failure, and/or improving or stablizing renal function using modified relaxin polypeptides” (BRISTOL-MYERS SQUIBB COMPANY, priority 2017, dated 2024).
Read-outs that look alike come from different tables or passages of the source.

Experiment: In vivo pharmacokinetic (PK) studies in rats
Design: species or system Sprague-Dawley rats
Settings: for level at time molar at 24 h: read-out: Rat PK C24; for AUC(0-inf): read-out: Rat PK AUC Total
Description: […] Blood samples were collected via jugular vein at different time points out to 72 hours. Blood samples were allowed to coagulate at room temperature (30-60 m) and then centrifuged (1500-2000) at 4° C. to obtain serum. After centrifugation serum samples were transferred to 96 well plates and stored at −80° C. until bioanalysis. Relaxin concentrations were measured from serum by ELISA.
Relaxin concentration-time profiles from individual animals were used for analysis. Pharmacokinetic parameters were calculated by non-compartmental methods using Phoenix WinNonlin (version 6.4) or Kinetica (version 5). Mean pharmacokinetic parameters Cmax, AUCinf, C24 and half-life were reported (Table 4). Table 4. In vivo PK data (abbreviations as in Table 3).

[1] = rats, SC dose 1.0 mg/kg, adjusted from 0.3 mpk
[2] = rat, male Sprague-Dawley rats, single SC dose 1.0 mg/kg, serum ELISA
[3] = rats, SC dose 1.0 mg/kg, adjusted from 0.5 mpk

Row | SMILES | AUC(0-inf) [2] | level at time molar at 24 h [2] | other results
1 | CC[C@H](C)[C@@H]1NC(=O)[C@H](C)NC(=O)[C@H]([C@@H](C)CC)NC(=O)[C@H](CCC(N)=O)NC(=O)[C@H](C)NC(=O)[C@H](CCCNC(=N)N)NC(=O)[C@H](C(C)C)NC(=O)[C@H](CC(C)C)NC(=O)[C@H](CCC(=O)O)NC(=O)[C@H](CCCNC(=N)N)NC(=O)CNC(=O)[C@@H](NC(=O)[C@H](CC(C)C)NC(=O)[C@H](CCCCN)NC(=O)[C@@H](NC(=O)[C@@H](NC(=O)[C@H](CCC(=O)O)NC(=O)[C@H](CCC(=O)O)NC(=O)[C@H](CCSC)NC(=O)[C@H](Cc2c[nH]c3ccccc23)NC(=O)[C@H](CO)NC(=O)[C@H](C)N)C(C)C)[C@@H](C)CC)CSSC[C@@H]2NC(=O)[C@@H](NC(=O)[C@H](CCCCN)NC(=O)[C@H](CC(N)=O)NC(=O)[C@H](C)NC(=O)[C@H](CC(C)C)NC(=O)[C@H](C)NC(=O)[C@H](CO)NC(=O)[C@H](Cc3ccc(O)cc3)NC(=O)[C@H](CC(C)C)NC(=O)[C@@H](N)Cc3ccc(C(C)=NOCCNC(=O)CNC(=O)CNC(=O)CNC(=O)CNC(=O)[C@H](CO)NC(=O)CC[C@H](NC(=O)CCCCCCCCCCCCCCC(=O)O)C(=O)O)cc3)CSSC[C@H](NC(=O)CNC(=O)[C@H](C(C)C)NC(=O)[C@H](Cc3c[nH]cn3)NC2=O)C(=O)N[C@@H]([C@@H](C)O)C(=O)N[C@@H](CCCCN)C(=O)N[C@@H](CCCNC(=N)N)C(=O)N[C@@H](CO)C(=O)N[C@@H](CC(C)C)C(=O)N[C@@H](C)C(=O)N[C@@H](CCCNC(=N)N)C(=O)N[C@@H](Cc2ccccc2)C(=O)N[C@H](C(=O)O)CSSC[C@@H](C(=O)NCC(=O)N[C@@H](CCSC)C(=O)N[C@@H](CO)C(=O)N[C@H](C(=O)N[C@@H](Cc2c[nH]c3ccccc23)C(=O)N[C@@H](CO)C(=O)O)[C@@H](C)O)NC1=O [AQ1-GGGGS-Glu^γ-C15-COOH] | – | – | Rat PK AUC Total [1]: 5526 nM·h; level at time molar at 24 h [1]: 44 nM
2 | CCCCCCCCCCCCCCCC(=O)N[C@@H](CCC(=O)NCC(=O)NCC(=O)NCC(=O)N[C@@H](CCC(=O)O)C(=O)N[C@@H](CCC(=O)O)C(=O)N[C@@H](CCC(=O)O)C(=O)NCCON=C(C)c1ccc(C[C@H](N)C(=O)N[C@@H](CC(C)C)C(=O)N[C@@H](Cc2ccc(O)cc2)C(=O)N[C@@H](CO)C(=O)N[C@@H](C)C(=O)N[C@@H](CC(C)C)C(=O)N[C@@H](C)C(=O)N[C@@H](CC(N)=O)C(=O)N[C@@H](CCCCN)C(=O)N[C@H]2CSSC[C@@H]3NC(=O)CNC(=O)[C@H](C(C)C)NC(=O)[C@H](Cc4c[nH]cn4)NC(=O)[C@H](CSSC[C@H](NC(=O)[C@H](CC(C)C)NC(=O)[C@H](CCCCN)NC(=O)[C@@H](NC(=O)[C@@H](NC(=O)[C@H](CCC(=O)O)NC(=O)[C@H](CCC(=O)O)NC(=O)[C@H](CCSC)NC(=O)[C@H](Cc4c[nH]c5ccccc45)NC(=O)[C@H](CO)NC(=O)[C@H](C)N)C(C)C)[C@@H](C)CC)C(=O)NCC(=O)N[C@@H](CCCNC(=N)N)C(=O)N[C@@H](CCC(=O)O)C(=O)N[C@@H](CC(C)C)C(=O)N[C@@H](C(C)C)C(=O)N[C@@H](CCCNC(=N)N)C(=O)N[C@@H](C)C(=O)N[C@@H](CCC(N)=O)C(=O)N[C@@H]([C@@H](C)CC)C(=O)N[C@@H](C)C(=O)N[C@@H]([C@@H](C)CC)C(=O)N[C@H](C(=O)NCC(=O)N[C@@H](CCSC)C(=O)N[C@@H](CO)C(=O)N[C@H](C(=O)N[C@@H](Cc4c[nH]c5ccccc45)C(=O)N[C@@H](CO)C(=O)O)[C@@H](C)O)CSSC[C@@H](C(=O)O)NC(=O)[C@H](Cc4ccccc4)NC(=O)[C@H](CCCNC(=N)N)NC(=O)[C@H](C)NC(=O)[C@H](CC(C)C)NC(=O)[C@H](CO)NC(=O)[C@H](CCCNC(=N)N)NC(=O)[C@H](CCCCN)NC(=O)[C@H]([C@@H](C)O)NC3=O)NC2=O)cc1)C(=O)O [AQ1-EEEGGG-Glu^γ-C15-CH3] | 370 nM·h | 0.89 nM | –
3 | CC[C@H](C)[C@@H]1NC(=O)[C@H](C)NC(=O)[C@H]([C@@H](C)CC)NC(=O)[C@H](CCC(N)=O)NC(=O)[C@H](C)NC(=O)[C@H](CCCNC(=N)N)NC(=O)[C@H](C(C)C)NC(=O)[C@H](CC(C)C)NC(=O)[C@H](CCC(=O)O)NC(=O)[C@H](CCCNC(=N)N)NC(=O)CNC(=O)[C@@H](NC(=O)[C@H](CC(C)C)NC(=O)[C@H](CCCCN)NC(=O)[C@@H](NC(=O)[C@@H](NC(=O)[C@H](CCC(=O)O)NC(=O)[C@H](CCC(=O)O)NC(=O)[C@H](CCSC)NC(=O)[C@H](Cc2c[nH]c3ccccc23)NC(=O)[C@H](CO)NC(=O)[C@H](C)N)C(C)C)[C@@H](C)CC)CSSC[C@@H]2NC(=O)[C@@H](NC(=O)[C@H](CCCCN)NC(=O)[C@H](CC(N)=O)NC(=O)[C@H](C)NC(=O)[C@H](CC(C)C)NC(=O)[C@H](C)NC(=O)[C@H](CO)NC(=O)[C@H](Cc3ccc(O)cc3)NC(=O)[C@H](CC(C)C)NC(=O)[C@@H](N)Cc3ccc(C(C)=NOCCNC(=O)[C@H](CCC(=O)O)NC(=O)[C@H](CCC(=O)O)NC(=O)[C@H](CCC(=O)O)NC(=O)CNC(=O)CNC(=O)CNC(=O)CC[C@H](NC(=O)CCCCCCCCCCCCCC(=O)O)C(=O)O)cc3)CSSC[C@H](NC(=O)CNC(=O)[C@H](C(C)C)NC(=O)[C@H](Cc3c[nH]cn3)NC2=O)C(=O)N[C@@H]([C@@H](C)O)C(=O)N[C@@H](CCCCN)C(=O)N[C@@H](CCCNC(=N)N)C(=O)N[C@@H](CO)C(=O)N[C@@H](CC(C)C)C(=O)N[C@@H](C)C(=O)N[C@@H](CCCNC(=N)N)C(=O)N[C@@H](Cc2ccccc2)C(=O)N[C@H](C(=O)O)CSSC[C@@H](C(=O)NCC(=O)N[C@@H](CCSC)C(=O)N[C@@H](CO)C(=O)N[C@H](C(=O)N[C@@H](Cc2c[nH]c3ccccc23)C(=O)N[C@@H](CO)C(=O)O)[C@@H](C)O)NC1=O [AQ1-EEEGGG-Glu^γ-C14-COOH] | – | – | Rat PK AUC Total [3]: 2137 nM·h; level at time molar at 24 h [3]: 5.2 nM
4 | CC[C@H](C)[C@@H]1NC(=O)[C@H](C)NC(=O)[C@H]([C@@H](C)CC)NC(=O)[C@H](CCC(N)=O)NC(=O)[C@H](C)NC(=O)[C@H](CCCNC(=N)N)NC(=O)[C@H](C(C)C)NC(=O)[C@H](CC(C)C)NC(=O)[C@H](CCC(=O)O)NC(=O)[C@H](CCCNC(=N)N)NC(=O)CNC(=O)[C@@H](NC(=O)[C@H](CC(C)C)NC(=O)[C@H](CCCCN)NC(=O)[C@@H](NC(=O)[C@@H](NC(=O)[C@H](CCC(=O)O)NC(=O)[C@H](CCC(=O)O)NC(=O)[C@H](CCSC)NC(=O)[C@H](Cc2c[nH]c3ccccc23)NC(=O)[C@H](CO)NC(=O)[C@H](C)N)C(C)C)[C@@H](C)CC)CSSC[C@@H]2NC(=O)[C@@H](NC(=O)[C@H](CCCCN)NC(=O)[C@H](CC(N)=O)NC(=O)[C@H](C)NC(=O)[C@H](CC(C)C)NC(=O)[C@H](C)NC(=O)[C@H](CO)NC(=O)[C@H](Cc3ccc(O)cc3)NC(=O)[C@H](CC(C)C)NC(=O)[C@@H](N)Cc3ccc(C(C)=NOCCNC(=O)[C@H](CCCCN)NC(=O)[C@H](CO)NC(=O)CNC(=O)CNC(=O)[C@H](CO)NC(=O)CNC(=O)CNC(=O)CC[C@H](NC(=O)CCCCCCCCCCCCC(=O)O)C(=O)O)cc3)CSSC[C@H](NC(=O)CNC(=O)[C@H](C(C)C)NC(=O)[C@H](Cc3c[nH]cn3)NC2=O)C(=O)N[C@@H]([C@@H](C)O)C(=O)N[C@@H](CCCCN)C(=O)N[C@@H](CCCNC(=N)N)C(=O)N[C@@H](CO)C(=O)N[C@@H](CC(C)C)C(=O)N[C@@H](C)C(=O)N[C@@H](CCCNC(=N)N)C(=O)N[C@@H](Cc2ccccc2)C(=O)N[C@H](C(=O)O)CSSC[C@@H](C(=O)NCC(=O)N[C@@H](CCSC)C(=O)N[C@@H](CO)C(=O)N[C@H](C(=O)N[C@@H](Cc2c[nH]c3ccccc23)C(=O)N[C@@H](CO)C(=O)O)[C@@H](C)O)NC1=O [AQ1-KSGGSGG-Glu^γ-C13-COOH] | 814 nM·h | 0.73 nM | –
5 | CC[C@H](C)[C@@H]1NC(=O)[C@H](C)NC(=O)[C@H]([C@@H](C)CC)NC(=O)[C@H](CCC(N)=O)NC(=O)[C@H](C)NC(=O)[C@H](CCCNC(=N)N)NC(=O)[C@H](C(C)C)NC(=O)[C@H](CC(C)C)NC(=O)[C@H](CCC(=O)O)NC(=O)[C@H](CCCNC(=N)N)NC(=O)CNC(=O)[C@@H](NC(=O)[C@H](CC(C)C)NC(=O)[C@H](CCCCN)NC(=O)[C@@H](NC(=O)[C@@H](NC(=O)[C@H](CCC(=O)O)NC(=O)[C@H](CCC(=O)O)NC(=O)[C@H](CCSC)NC(=O)[C@H](Cc2c[nH]c3ccccc23)NC(=O)[C@H](CO)NC(=O)[C@H](C)N)C(C)C)[C@@H](C)CC)CSSC[C@@H]2NC(=O)[C@@H](NC(=O)[C@H](CCCCN)NC(=O)[C@H](CC(N)=O)NC(=O)[C@H](C)NC(=O)[C@H](CC(C)C)NC(=O)[C@H](C)NC(=O)[C@H](CO)NC(=O)[C@H](Cc3ccc(O)cc3)NC(=O)[C@H](CC(C)C)NC(=O)[C@@H](N)Cc3ccc(C(C)=NOCCNC(=O)CNC(=O)[C@H](CCC(=O)O)NC(=O)[C@@H](NC(=O)CNC(=O)[C@H](CO)NC(=O)[C@H](CO)NC(=O)CNC(=O)[C@H](CCC(=O)O)NC(=O)CNC(=O)[C@@H](NC(=O)CC[C@H](NC(=O)CCCCCCCCCCCCC(=O)O)C(=O)O)[C@@H](C)O)[C@@H](C)O)cc3)CSSC[C@H](NC(=O)CNC(=O)[C@H](C(C)C)NC(=O)[C@H](Cc3c[nH]cn3)NC2=O)C(=O)N[C@@H]([C@@H](C)O)C(=O)N[C@@H](CCCCN)C(=O)N[C@@H](CCCNC(=N)N)C(=O)N[C@@H](CO)C(=O)N[C@@H](CC(C)C)C(=O)N[C@@H](C)C(=O)N[C@@H](CCCNC(=N)N)C(=O)N[C@@H](Cc2ccccc2)C(=O)N[C@H](C(=O)O)CSSC[C@@H](C(=O)NCC(=O)N[C@@H](CCSC)C(=O)N[C@@H](CO)C(=O)N[C@H](C(=O)N[C@@H](Cc2c[nH]c3ccccc23)C(=O)N[C@@H](CO)C(=O)O)[C@@H](C)O)NC1=O [AQ1-GETGSSGEGT-Glu^γ-C13-COOH] | 1110 nM·h | 0.28 nM | –
